Experimental data reported in article PMC11026473.

Biological target: myc-Xbra (UniProt P24781)
Experiment: co-immunoprecipitation (IP: Flag, WB: Myc), band intensity quantified
Details: Xenopus embryos injected with flag-smad1 constructs and myc-xbra; parent: est. 1.0; read off a plot

Chain of UniProt P24781 (P24781 whole entry): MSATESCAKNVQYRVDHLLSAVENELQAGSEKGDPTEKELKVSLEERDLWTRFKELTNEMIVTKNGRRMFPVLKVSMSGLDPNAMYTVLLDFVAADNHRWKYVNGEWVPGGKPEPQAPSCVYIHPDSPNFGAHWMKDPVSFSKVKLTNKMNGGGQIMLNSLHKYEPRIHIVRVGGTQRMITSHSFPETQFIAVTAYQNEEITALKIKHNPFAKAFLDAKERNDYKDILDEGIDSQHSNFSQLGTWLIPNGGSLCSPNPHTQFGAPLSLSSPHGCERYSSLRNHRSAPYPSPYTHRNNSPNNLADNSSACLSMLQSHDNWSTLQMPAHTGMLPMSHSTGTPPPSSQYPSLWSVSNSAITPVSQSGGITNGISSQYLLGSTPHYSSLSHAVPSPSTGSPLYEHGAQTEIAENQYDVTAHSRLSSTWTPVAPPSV

ratio to parent	Substance
0.65	flag-Smad1 (WT) (from UniProt Q15797) S187A; S196A; S206A; S214A; C-terminal SSXS to DDXD (4SA3SD)
4.1	flag-Smad1 (WT) (from UniProt Q15797) S187D; S196D; S206D; S214D; C-terminal SSXS to DDXD (4SD3SD)
